Measurements as given in patent publication US20210388112A1.

Biological target: T1, peptide containing GA-pyridine (Biotin-Gly-Ala-Gly-(GA-pyridine)-Gly-Ala-CONH2)
T1 chain: GAGXGA
Assay: SPR (Biacore T200), peptide immobilised on sensor chip SA, 25 C

B1: cyclic Y9-scFv cyclized by sortase (scFv)
scFv: GGGSHMAQVKLQQSGPSLVKPSQTLSLTCSVTGDSITSGYWNWIRKFPGNKFEYLGYISYSGRTYYNPSLKSRISITRDTSKNQYYLQLNSVTTEDTATYYCSRPYYRYDYAIDYWGQGTTVTVSSGGGGSGGGGSGGGGSDIELTQSPAIMSASLGEQVTMTCTASSSVSSSYLHWYQQKPGSSPKLWIYSTSNLASGVPARFSSSGSGTSYSLTISRMEAEDAATYYCQQSWKAPYTFGGGTKLEIKRAAAGTHHHHHHLPET
modifications: not checked
**Q.** How did the Kd turn out when B1 was run?
**A.** The Kd was 16.1 nM.
